In publication PMC7644948 (iScience, 2020):

Molecular target: the molecule itself
Assay: SEC

B1: PKM2 mutant with triple mutations (R399E, K422A, and N523A) (enzyme)
chain: not shown
- stoichiometry N: 2
